Patent US20250161505A1, “CD206 Targeted Peptide Conjugates and Methods of Using the Same” (Riptide Bioscience, Inc., priority 2022, published 2025)
Where a SMILES comes first, the peptide text is derived from it. The star is where a group is joined. DOTA = O=C(O)CN1CCN(CC(=O)O)CCN(CC(=O)*)CCN(CC(=O)O)CC1

Key:
[1] = tested on: tumor associated macrophages (TAMs); details: cited from earlier work
CD206 macrophages = details: through interactions with CD206 macrophages; cited from earlier work
[2] = tested on: PDL1 unresponsive melanoma; details: PDL1 unresponsive melanoma murine models; cited from earlier work
syngeneic CT26 tumors = assay: in vivo; design: species or system BALB/c mice; details: mouse
Experimental: (§1) 4T1 cells, a mouse breast cancer cell line (ATCC), and CT26 cells, a mouse colon carcinoma cell line (ATCC), were cultured in RPMI-1640 medium (ATCC) with 10 percent fetal bovine serum and 0.1 percent gentamicin at 37 degrees Celsius with 5 percent CO2. Wild-type BALB/c mice (Charles River) were used for syngeneic 4T1 and CT26 tumor models and were subcutaneously injected in the shoulder with 200,000 4T1 cells and 2×10^6 CT26 cells (with Matrigel). Tumors were allowed to grow for 10 days. Dynamic imaging studies were performed with a GNEXT small animal PET/CT (SOFIE). […] After 45 minutes, a high-resolution CT scan was obtained for anatomical reference. […] After 1 hour, a high-resolution CT scan was obtained for anatomical reference. During imaging, mice were anesthetized with 2.5 percent isoflurane/oxygen. The PET data was reconstructed into 5-minute time frames. Regions of interest (ROI) were drawn based on the CT anatomical guidelines. The mean standardized uptake value (SUV) was quantified using VivoQuant software with the equation: Where C is the activity concentration in tissue, dose is the injected dose, and weight is the body weight of the mouse. Statistical analysis was conducted with Graphpad Prism software.

syngeneic 4T1 tumors = assay: in vivo; design: species or system BALB/c mice; details: mouse
Experimental: as §1

in vivo [3] = assay: in vivo; design: species or system BALB/c mice; details: BALB/c, mouse, total radioactivity
Experimental: as §1

in vivo [4] = assay: in vivo; design: species or system BALB/c mice; details: BALB/c, mouse, total radioactivity, average percent injected dose per gram of organ
Experimental: 4T1 cells, a mouse breast cancer cell line (ATCC), and CT26 cells, a mouse colon carcinoma cell line (ATCC), were cultured in RPMI-1640 medium (ATCC) with 10 percent fetal bovine serum and 0.1 percent gentamicin at 37 degrees Celsius with 5 percent CO2. Wild-type BALB/c mice (Charles River) were used for syngeneic 4T1 and CT26 tumor models and were subcutaneously injected in the shoulder with 200,000 4T1 cells and 2×10^6 CT26 cells (with Matrigel). Tumors were allowed to grow for 10 days. Following the [^68Ga]832c imaging studies, animals were euthanized, and organs of interest removed and assessed for radioactivity. For all biodistribution studies, specific uptake for each tissue was measured with background and decay correction and expressed as percent injected dose per gram of tissue (% ID/g) as calculated by normalization to the total activity injected.

[5] = type: in vitro ADME; details: mouse, serum
Experimental: Labeling of RP-832 and MART-1 with ^68Ga was accomplished by adding 10 μg of peptide to 500 μCi of ^68GaCl3 in 50 μL of 1 M sodium acetate buffer (pH 4.5). The reactions were incubated in a thermomixer at 95 degrees Celsius for 14 minutes with 300 rpm agitation. Incorporation of the ^68Ga was determined by radio-High Performance Liquid Chromatography (HPLC) immediately after the reaction. Analysis was performed using a C-18 column. The gradient elution system utilized mobile phase A (100% water 0.1% TFA) and mobile phase C (Acetonitrile containing 0.1% TFA) with a flow rate of 1.0 mL/min. The gradient started with 100% A and was increased to 100% C over 6.67 minutes and then returned to the initial gradient conditions within 4.66 minutes. […] The mixtures were incubated at 37 degrees Celsius with 400 rpm agitation up to three hours. Aliquots were removed at different time points (30 minutes, 1, 2, 3 h) to evaluate stability and analyzed using radio-HPLC as described above. All experiments were completed in triplicate.

Recombinant human CD206 = target: T1, Recombinant human CD206 (Homo sapiens, UniProt P22897); assay: Surface plasmon resonance (Biacore T200), immobilized CD206; type: binding; details: all concentrations (0.5 uM-10 uM)
T1 construct: purchased R&D systems 2534-MR-050
T1 sequence (P22897 19-1456): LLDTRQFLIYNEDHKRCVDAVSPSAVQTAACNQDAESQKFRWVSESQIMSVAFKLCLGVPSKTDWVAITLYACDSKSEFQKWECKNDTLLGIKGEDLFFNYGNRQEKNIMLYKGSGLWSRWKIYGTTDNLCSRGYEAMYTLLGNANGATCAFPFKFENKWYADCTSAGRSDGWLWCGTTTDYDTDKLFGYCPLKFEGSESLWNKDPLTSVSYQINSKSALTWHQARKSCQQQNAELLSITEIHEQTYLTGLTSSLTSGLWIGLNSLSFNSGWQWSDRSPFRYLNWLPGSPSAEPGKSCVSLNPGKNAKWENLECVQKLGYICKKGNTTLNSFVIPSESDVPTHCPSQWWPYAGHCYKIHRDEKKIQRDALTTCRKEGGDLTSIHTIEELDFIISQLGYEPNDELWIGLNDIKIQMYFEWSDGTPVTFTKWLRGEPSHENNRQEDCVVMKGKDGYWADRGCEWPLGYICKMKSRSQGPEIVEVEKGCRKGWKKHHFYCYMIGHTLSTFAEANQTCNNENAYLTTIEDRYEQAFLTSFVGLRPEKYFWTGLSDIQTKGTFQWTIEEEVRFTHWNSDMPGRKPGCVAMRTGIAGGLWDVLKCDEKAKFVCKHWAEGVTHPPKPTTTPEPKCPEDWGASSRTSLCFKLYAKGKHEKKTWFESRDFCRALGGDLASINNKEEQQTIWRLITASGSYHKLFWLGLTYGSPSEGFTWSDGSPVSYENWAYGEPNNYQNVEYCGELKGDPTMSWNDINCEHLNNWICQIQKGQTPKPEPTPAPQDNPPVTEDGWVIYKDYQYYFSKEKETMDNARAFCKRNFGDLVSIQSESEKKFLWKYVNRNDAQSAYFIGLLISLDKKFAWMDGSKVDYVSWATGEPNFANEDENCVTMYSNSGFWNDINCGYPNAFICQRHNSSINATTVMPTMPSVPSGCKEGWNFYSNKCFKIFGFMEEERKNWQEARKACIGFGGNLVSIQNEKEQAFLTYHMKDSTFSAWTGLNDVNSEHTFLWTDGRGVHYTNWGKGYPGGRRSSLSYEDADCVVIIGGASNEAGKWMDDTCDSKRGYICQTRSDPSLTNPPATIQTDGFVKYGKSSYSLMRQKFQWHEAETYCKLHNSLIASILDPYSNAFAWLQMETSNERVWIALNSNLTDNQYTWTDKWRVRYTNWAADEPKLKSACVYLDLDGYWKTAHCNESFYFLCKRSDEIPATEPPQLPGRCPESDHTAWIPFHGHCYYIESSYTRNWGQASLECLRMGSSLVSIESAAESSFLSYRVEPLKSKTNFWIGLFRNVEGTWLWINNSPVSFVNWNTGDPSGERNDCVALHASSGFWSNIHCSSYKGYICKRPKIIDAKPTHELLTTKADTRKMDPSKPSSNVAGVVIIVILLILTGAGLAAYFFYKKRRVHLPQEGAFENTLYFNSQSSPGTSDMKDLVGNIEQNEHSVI
Experimental: All SPR experiments were carried out using a Biacore T200 Biosensor instrument (GE Health Life Sciences, Piscataway, NJ). CM5 sensor chips, amine coupling reagents, and running buffers used in the binding analysis were obtained from Cytivalifesciences (Marlborough, MA).
Recombinant human CD206 was purchased from R&D systems (Catalog #2534-MR-050). CD206 protein was immobilized onto a CM5 sensor chip surface via standard amine coupling chemistry, using HBS-P+ running buffer (10 mM HEPES, [pH 7.4], 150 mM NaCl, and 0.05% Surfactant 20) at 25° C., as per manufacturer recommendation (Cytiva, Marlborough, MA). Briefly, carboxyl groups on the sensor chip flow cell surface (flow cell 2) were activated by injecting an equal mixture of 200 mM N-hydroxysuccinimide (NHS) and 50 mM 1-ethyl-3-(3-dimethylaminopropyl) carbodiimide hydrochloride) (EDC) at a flow rate of 10 μl/min. CD206 (25 μg/mL) was then diluted in 10 mM sodium acetate buffer pH 5.0 and injected over the surface at a flow rate of 10 μl/min until a level of 5000 resonance units (RU) was reached. This was followed by a 7 min injection of 1 M ethanolamine (pH 8) to block excessive reactive esters and wash away any non-covalently bound CD206. A blank flow cell surface (flow cell 1) was similarly activated with no protein injection, and used as a reference to subtract non-specific binding and bulk refractive index. […]

In the case of RWKFGGFKWR [RP-832c], the “effect on population of tumor associated macrophages” value [1] is given as “shift the population of tumor associated macrophages (TAMs) from M2 (pro-tumor) towards a M1 phenotype (anti-tumor)”, the “effect on bleomycin induced pulmonary fibrosis” value (CD206 macrophages) is given as “inhibit bleomycin induced pulmonary fibrosis” and the “effect on tumor resistance” value [2] is given as “shown promise in inhibiting tumor resistance”.
In the case of `N=C(N)NCCC[C@H](NC(=O)[C@H](Cc1c[nH]c2ccccc12)NC(=O)[C@H](CCCCN)NC(=O)[C@H](Cc1ccccc1)NC(=O)CNC(=O)CNC(=O)[C@H](Cc1ccccc1)NC(=O)[C@H](CCCCN)NC(=O)[C@H](Cc1c[nH]c2ccccc12)NC(=O)[C@H](CCCNC(=N)N)NC(=O)CN1CCN(CC(=O)O)CCN(CC(=O)O)CCN(CC(=O)O)CC1)C(=O)O` [[^68Ga]RP832c, metal not drawn] ({DOTA}-RWKFGGFKWR-OH), the “highest signal in maximum intensity projections (MIPs)” value (syngeneic CT26 tumors) is reported as “kidneys and bladder”, the “highest signal in MIP images” value (syngeneic 4T1 tumors) is reported as “bladder” and the SUV at 0.25 h (in vivo [3]) is reported as 0.25 SUV. The SUV at 40 min (in vivo [3]) was 0.5 SUV, the tissue uptake at 1.5 h (in vivo [4]; 15 uCi, liver) was 1.66 %ID/g and the tissue uptake at 1.5 h (in vivo [4]; 15 uCi, spleen) was 0.67 %ID/g. The tissue uptake at 1.5 h (in vivo [4]; 15 uCi, tumor) was 0.4 %ID/g, the tissue uptake at 1.5 h (in vivo [4]; liver) was 1.46 %ID/g and the tissue uptake at 1.5 h (in vivo [4]; spleen) was 0.91 %ID/g. The tissue uptake at 1.5 h (in vivo [4]; tumor) was 0.57 %ID/g and the “free ^68Ga (^68Ga remained complexed)” value [5] was “less than one percent free ^68Ga”.
With “DOTA-MART-1: MART-1 peptide with DOTA, not radiolabeled, control in SPR” the binding sensorgram (Recombinant human CD206) was “no binding”.
